Results taken from article PMC9606039, “Molecular analysis of a public cross-neutralizing antibody response to SARS-CoV-2” (Cell Reports, 2022).

Molecular target: T1, receptor-binding domain (RBD) (residues 319-541) of the SARS-CoV-2 spike (S) protein (SARS-CoV-2, ancestral Wuhan-Hu-1 …, UniProt P0DTC2)
T1 construct: also called SARS-CoV-2 RBD; wild-type RBD
Assay: BLI
Details: both partners purified

B1: 2-7 D54N Fab (Fab, V domains shown)
VH: QITLKESGPTLVKPTQTLTLTCTFSGFSLSTSGVGVGWIRQPPGKALEWLALIYWNDDKRYSPSLKSRLTITKDTSKNQVVLTMTNMDPVDTATYYCAHHKIERIFDYWGQGTLVTVSS
VL: QSALAQPASVSGSPGQSITISCTGTSSDVGAYNYVSWYQQHPGKAPKLMIYDVSKRPSGVSNRFSGSKSGNTASLTISGLQAEDEADYYCSSYTTSSTVFGGGTKLTVL
  fold weakening of KD against the wild-type Fab: ≥ 100 fold
